# Source: patent US20110229478A1, “ERBB3 BASED METHODS AND COMPOSITIONS FOR TREATING NEOPLASMS” (ZENSUN (SHANGHAI) SCIENCE & TECHNOLOGY LIMITED, priority 2002, published 2011)
# Where “and” joins values, the source holds several entries; their conditions need not be identical. Identical values can stand only once.
# Assays:
# [1] = system: transplanted tumour from spontaneous tumour of neu protein over-expressed FVB/N transgenic mice; assay: Therapeutic effect of various dosage of DE3-1 in transplanted tumour model (Table 3); assay type: in vivo
# Description: (§1) Transplanted tumour model, after immunohistological screening test, about 1000 mm^3 tumour mass was cut down from spontaneous tumour of neu protein over-expressed FVB/N transgenic mice. The tumour mass was abraded into single cells with nylon net, the amount injected under the breast of each FVB/N transgenic mice was 5×10^6 cells.
# (§2) Preparing animal and transplanted animal tumor model: The same as (Experiment on therapeutic effect of B3 and DE3-1 rhErbB3-f12 and rhErbB3-f78 vaccine on immune therapy against tumor). No treatment was given to the control group, histag protein was injected to the negative control group, and Adriamycin (Santou MingZhi Pharmaceuticals) was administered for the positive control group, 5 μg, 20 μg and 80 μg was given to DE3-1 group respectively.
# One day after the inoculation, Adriamycin 2.2 mg/kg was injected abdominally for consecutive 7 days in mice of the positive control group; histag protein+Al(OH)^3 was injected abdominally for mice of the negative control group; In DE3-1 group, the vaccine was absorbed on 0.1 mg of Al(OH)^3 and multi-points subcutaneous injection every 2 weeks for a total of 3 injections were carried out in mice. The experiment completed in 14 days after the third injection. Tumor development was monitored weekly, tumor size was measured with vernier and the size was expressed as (length diameter×short diameter 2/2), curve of tumor growth was protracted and analyzed statistically.
# (§3) Tumor weight was measured after completion of the experiment and tumor-inhibitory rate was calculated, tumor inhibitory rate=[(tumor weight of control group−tumor weight of experiment groups)/tumor weight of control group]×100.
# [2] = system: transplanted tumour from spontaneous tumour of neu protein over-expressed FVB/N transgenic mice; assay: Anti-tumor effect of rhErbB3-f78 (Table 5); assay type: in vivo
# Description: as §1
# (§4) Experiment on the therapeutic effect of various dosage of DE3-1 rhErbB3412 and rhErbB3-f78 on immune therapy against tumor.
# as §2, §3
# [3] = system: transplanted tumour from spontaneous tumour of neu protein over-expressed FVB/N transgenic mice; assay: Anti-tumor effect of rhErbB3-f12 (Table 4); assay type: in vivo
# Description: as §1, §4, §2, §3
# [4] = system: tumor development in FVB/N transgenic mice (neu protein over-expression, spontaneous breast cancer); assay: Preventive effect of B3, DE3-1 on tumor development; assay type: in vivo; settings: for Incidence of tumor growth / Time of tumor occurrence: injected abdominally every 20 days, 7 injections, 40 mice; for Tumor-inhibitory effect against the development of tumor, incidence versus negative control group: ×2 testing versus BSA + CFA control
# Protocol: 8-10 weeks old FVB/N transgenic mice (bought from Jackson Lab USA) was selected as experiment animals, the mice were divided into 5 groups with 40 mice each, they were control group, B2, B3 and DE3-1 group; BSA, B2, SD32, B3, DE3-1 was mixed with Freud's adjuvant (CFA, complete Freud's adjuvant, bought from Sigma company) and injected abdominally every 20 days for 7 injections respectively to various groups. The dosage of BSA, B2, SD32, B3 and DE3-1 vaccine was 10, 5, 10, 1 and 10 μg/mouse/injection. Weekly monitor tumour development. The tumour development was verified and analysed statistically.
# Objective of the present experiment is to explore whether there is preventive effect of B3 or DE3-1 vaccine on tumor development. The reason to choose this type of transgenic mice as experiment animal model, is because rat wild type neu cDNA controlled by mice breast virus promotor was transferred into the body of mice and produce over-expression of neu protein and spontaneous breast cancer occurred within 5-8 months in half of the mice. Natural course of tumor in the transgenic mice and its pathologic pattern is similar to that of human breast cancer. Therefore, it may have better therapeutic effect when used clinically. The sample contains 40 animals in each group, the aim of selecting such large sample is to ensure the number of cases which have the disorders will be greater than 10 animals, thus will be of greater implication statistically. The selection of dosage is based on the results of pre-experiments.
# [5] = system: transplanted tumour from spontaneous tumour of neu protein over-expressed FVB/N transgenic mice; assay: Therapeutic effect of B3 vaccine in transplanted tumour model (Table 2); assay type: in vivo
# Protocol: as §1
# Nothing was administrated in the control group; 24 hours after the inoculation, SD32 and B3 vaccine injection started in SD32 and B3 experiment groups, the aforementioned vaccines were absorbed on 0.1 mg/ml of Al(OH)3 respectively, and injected multi-pointedly every 2 weeks for a total of three injections; the experiment was completed in 14 days after the third injection. Morbidity was monitored weekly, tumor size was measured weekly with vernier. Volume (length diameter×short diameter 2/2) of the tumor was used to represent their size, and curve of tumor growth was protracted,
# Tumor weight was measured after completion of the experiment and tumor-inhibitory rate was calculated, inhibitory rate=[(tumor weight of control group−tumor weight of experiment groups)/tumor weight of control group]×100.
# [6] = system: B2 and B3 antigen; assay: Cross immunity of B2 and B3 antigen (ELISA antibody titer); settings: serum of immunized FVB transgenic mice, ELISA on wrapped B2 or B3 protein, 450 nm
# Protocol: FVB transgenic mice were immuned with B2 protein and B3 protein respectively, 10 days thereafter, blood was withdrawn and antibody titer was tested with ELISA. 0.3 μg/hole of B2 and B3 was wrapped, 1:1000 B2 and B3 on each plate were titrated with standard serum respectively, cultured at 37° C. for 30 minutes, sealed with 1% BSA, added double antibody, color development for 15 minutes with DAD, tested with Bio-Rad 450 nm enzyme labeled device.
# [7] = ADR 2.2 mg/kg injected abdominally for consecutive 7 days
# [8] = 5 μg + Al(OH)3, subcutaneous every 2 weeks, 3 injections
# [9] = 20 μg + Al(OH)3, subcutaneous every 2 weeks, 3 injections
# [10] = 80 μg + Al(OH)3, subcutaneous every 2 weeks, 3 injections
molecule,measurement,setting,value
"COc1cccc2c1C(=O)c1c(O)c3c(c(O)c1C2=O)C[C@@](O)(C(=O)CO)C[C@@H]3O[C@H]1C[C@H](N)[C@H](O)[C@H](C)O1 [ADR, Adriamycin, reference compound]",Inhibitory rate,[1]; [7],25.3%
same,Tumor size,[1]; [7],4603.1 ± 478.3 mm3
same,Tumor weight,[1]; [7],3.564 ± 0.42 g
same,Inhibitory rate,"[2]; 2 mg/kg, ip X 7 qd",40.98%
same,Tumor weight,"[2]; 2 mg/kg, ip X 7 qd",0.648 ± 0.27 g
"CC(=O)O[C@H]1C(=O)[C@@]2(C)[C@H]([C@H](OC(=O)c3ccccc3)[C@]3(O)C[C@H](OC(=O)[C@H](O)[C@@H](NC(=O)c4ccccc4)c4ccccc4)C(C)=C1C3(C)C)[C@]1(OC(C)=O)CO[C@@H]1C[C@@H]2O [Taxol, reference compound]",Inhibitory rate,"[3]; 10 mg/kg, ip X 7 qd",44.32%
same,Tumor weight,"[3]; 10 mg/kg, ip X 7 qd",3.09 ± 1.08 g
"B3: protein of ErbB3 extra-cell membrane region (SEQ ID NO:2), flag-tagged, expressed by eucaryotic cells; anti-tumor vaccine",Incidence of tumor growth,[4]; 5 μg/animal/dose + CFA,12.5%
same,Time of tumor occurrence,[4]; 5 μg/animal/dose + CFA,22 weeks and 20 weeks
same,"Tumor-inhibitory effect against the development of tumor, incidence versus negative control group",[4],significant tumor-inhibitory effect
same,Tumor-inhibitory effect (significance),"[5]; t testing, P<0.01",significant tumor-inhibitory effect
same,Inhibitory rate,"[5]; vaccine + Al(OH)3, every 2 weeks, three injections",33%
same,Tumor size,"[5]; vaccine + Al(OH)3, every 2 weeks, three injections, 5 weeks",5271.8 ± 658.9 mm3
same,Tumor weight,"[5]; vaccine + Al(OH)3, every 2 weeks, three injections, at completion of experiment",3.13 ± 0.33 g
same,Cross immunity between B2 and B3 antigen,[6],there isn't any cross immunity
"rhErbB3-f12: protein segment of ErbB3 extra-cell membrane region (SEQ ID NO:14) expressed by E. coli (protein, listed as Homo sapiens) MKYLLPTAAAGLLLLAAQPAMAMDIKHNRPRRDCVAEGKVCDPLCSSGGCWGPGPGQCLSCRNYSRGGVCVTHCNFLNGEPLEHHHHHH",Inhibitory rate,"[3]; 0.25 mg/kg, sc X 3 q14d",58.39%
same,Tumor weight,"[3]; 0.25 mg/kg, sc X 3 q14d",2.31 ± 0.40 g
same,Inhibitory rate,"[3]; 0.5 mg/kg, sc X 3 q14d",52.61%
same,Tumor weight,"[3]; 0.5 mg/kg, sc X 3 q14d",2.62 ± 0.67 g
same,Inhibitory rate,"[3]; 1 mg/kg, sc X 3 q14d",56.76%
same,Tumor weight,"[3]; 1 mg/kg, sc X 3 q14d",2.40 ± 0.49 g
"DE3-1: extra-cell membrane ErbB3 protein segment (SEQ ID NO:3) expressed by E. coli, N end fused with Trx Tag, His Tag and S-Tag (protein, listed as Homo sapiens, N-terminal Trx, His, S tags) MRANDALQVLGLLFSLARGSEVGNSQAVCPGTLNGLSVTGDAENQYQTLYKLYERCEVVMGNLEIVLTGHNADLSFLQWIREVTGYVLVAMNEFSTLPLPNLRVVRGTQVYDGKFAIFVMLNYNTNSSHALRQLRLTQLTEILSGGVYIEKNDKLCHMDTIDWRDIVRDRDAEIVVKDNGRSCPPCHEVC",Incidence of tumor growth,[4]; 10 μg/animal/dose + CFA,35%
same,Time of tumor occurrence,[4]; 10 μg/animal/dose + CFA,23 weeks
same,"Tumor-inhibitory effect against the development of tumor, incidence versus negative control group",[4],not significantly different
same,Inhibitory rate,[1]; [8],22.4%
same,Tumor size,[1]; [8],5563.7 ± 600.6 mm3
same,Tumor weight,[1]; [8],3.687 ± 0.45 g
same,Tumor size,[1]; [9],4715.0 ± 434.8 mm3
same,Tumor weight,[1]; [9],3.455 ± 0.41 g
same,Inhibitory rate,[1]; [10],26.3%
same,Tumor size,[1]; [10],4810.8 ± 460.5 mm3
same,Tumor weight,[1]; [10],3.658 ± 0.37 g
"rhErbB3-f78: ErbB3 extra-cell membrane protein segment (SEQ ID NO:16) expressed by E. coli (protein, listed as Homo sapiens) MVCVASCPHNFVVDQTSCVRACPPDKMEVDKNGLKMCEPCGGLCPKACEGTGSGSRFQTVDSSNIDGFVNCTKILGNLDFLITGLNGDPWHKIPALDPEKLNVFRTVREITGYLNIQSWPPHMHNFSVFSNLTTIGGRSKLAAALEHHHHHH",Inhibitory rate,"[2]; 2.5 mg/kg, sc X 3 q14d",60.38%
same,Tumor weight,"[2]; 2.5 mg/kg, sc X 3 q14d",0.435 ± 0.12 g
